The values that follow come from the supplement of paper PMC10567573.

± gives the standard deviation.

This series in a line: protein stability index of a GFP-peptide fusion (GPS, HEK-293T) (PSI 1-6); higher = more stable. Conditions: c terminus: a fixed tail appended.
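Note: 24-mer peptide tiles fused after GFP, lentivirally expressed, FACS-sorted into six equal bins by GFP/DsRed ratio, decoded by Illumina sequencing, PSI is the read-weighted mean bin number.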

For EAASFLQILPVLDFCKVFLISGVT [KLHL13], the protein stability index turned out to be 3.43 ± 0.78 (treatment: DMSO) and 2.96 ± 0.13 (treatment: MLN4924 1 uM, 8 h).

Sequence EAIQPYRDRLRSRLEALSTERDEI [TRIM15] displayed a protein stability index (treatment: DMSO) of 4.61 ± 0.12 and a protein stability index (treatment: MLN4924 1 uM, 8 h) of 4.52 ± 0.14.

As for EARARARANRGILQQERQRLGQRQ [DNAJC4], the protein stability index was 4.74 ± 0.28 (treatment: DMSO) and 4.65 ± 0.14 (treatment: MLN4924 1 uM, 8 h).

For the sequence EARFIRRSCTPNAEVRHEIQDGTI [KMT2E], the protein stability index turned out to be 4.34 ± 0.67 (treatment: DMSO) and 4.27 ± 0.11 (treatment: MLN4924 1 uM, 8 h).

EDIDTSMYDNELWAPASEGLKPGP [SERTAD1]: the protein stability index runs as follows: (treatment: DMSO) 4.84 ± 0.19; (treatment: MLN4924 1 uM, 8 h) 4.76 ± 0.17.

For EECIPEHMVRESKIMEAESQKATR [FAN1], the protein stability index by setting is: (treatment: DMSO) 5.12 ± 0.77; (treatment: MLN4924 1 uM, 8 h) 4.72 ± 1.2.

Turning to EEDRPLGGGEGHQPAGNRRGQARR [BEX3], the protein stability index is, setting by setting: (treatment: DMSO) 5.72 ± 0.14; (treatment: MLN4924 1 uM, 8 h) 5.563 ± 0.048.

As for EEEDREEEDENGLPRRRGLRKKKT [NEUROD6], the protein stability index is, setting by setting: (treatment: DMSO) 5.53 ± 0.59; (treatment: MLN4924 1 uM, 8 h) 5.52 ± 0.37.

Regarding EEEEEATNTHPPASLPSQKYPGPQ [CHGA], the protein stability index by setting is: (treatment: DMSO) 5.61 ± 0.16; (treatment: MLN4924 1 uM, 8 h) 5.54 ± 0.17.

As to EELQNKILTATVDNANILLQIDNA [KRT17], the protein stability index turned out to be 4.03 ± 0.095 (treatment: DMSO) and 4.3 ± 0.053 (treatment: MLN4924 1 uM, 8 h).

Consider EEPAEKEDLLQQMLERRYTPYPNL [CLCN6], for which the protein stability index is, setting by setting: (treatment: DMSO) 4.4 ± 0.19; (treatment: MLN4924 1 uM, 8 h) 4.44 ± 0.37.

Consider EESFRQMVVIHKEIPTGKKDHECS [ZNF232], for which the protein stability index stood at 4.84 ± 0.31 (treatment: DMSO) and 4.77 ± 0.11 (treatment: MLN4924 1 uM, 8 h).

For EEVSEVESFILDQDDLENPMLETA [ANKRD17], the protein stability index is, setting by setting: (treatment: DMSO) 5.69 ± 0.23; (treatment: MLN4924 1 uM, 8 h) 5.16 ± 0.57.

EFDDGSGSVLRIQPLRTPRDEAIY [PTPRD]: the protein stability index is, setting by setting: (treatment: DMSO) 3.47 ± 0.11; (treatment: MLN4924 1 uM, 8 h) 3.88 ± 0.54.

With EFTIRDLQRLGELQSELAGVADFS [INTS4], the protein stability index reads like this: (treatment: DMSO) 3.3 ± 0.17; (treatment: MLN4924 1 uM, 8 h) 3.42 ± 0.48.

Turning to EFVNGWYILLVTSDVLTISGTIMK [MCOLN1], the protein stability index is, setting by setting: (treatment: DMSO) 3.06 ± 0.26; (treatment: MLN4924 1 uM, 8 h) 3.08 ± 0.33.

Turning to EGKSRHVDFQCVKSKSITNLAAAA [BTBD10], the protein stability index came out at 3.48 ± 0.43 (treatment: DMSO) and 3.9 ± 0.28 (treatment: MLN4924 1 uM, 8 h).

As to EGRFWKSKNEDRGEEEAESSISST [ZMYND11], the protein stability index runs as follows: (treatment: DMSO) 5.65 ± 0.2; (treatment: MLN4924 1 uM, 8 h) 5.71 ± 0.13.

Turning to EGYKDADYWLRRFEAEPLPENTNR [PI4K2A], the protein stability index worked out at 4.52 ± 0.13 (treatment: DMSO) and 4.41 ± 0.16 (treatment: MLN4924 1 uM, 8 h).

In turn, EHERAHRGEKPHGCSLCGKAFYKR [ZNF649] gave a protein stability index (treatment: DMSO) of 2.79 ± 0.11 and a protein stability index (treatment: MLN4924 1 uM, 8 h) of 3.45 ± 0.59.

As to EHKSLTGTARYMSINTHLGKEQSR [CSNK1G3], the protein stability index was 4.02 ± 0.095 (treatment: DMSO) and 3.82 ± 0.38 (treatment: MLN4924 1 uM, 8 h).

For the sequence EHTGEVRTARALLDRDALKQSLVV [PCDHGA10], the protein stability index amounted to 3.23 ± 0.2 (treatment: DMSO) and 3.3 ± 0.26 (treatment: MLN4924 1 uM, 8 h).

Consider EHVSRALCIHTGRELRCKVFPIKH [TRIB1], for which the protein stability index by setting is: (treatment: DMSO) 2.21 ± 0.13; (treatment: MLN4924 1 uM, 8 h) 2.61 ± 0.3.

On to EIDSVPKTQSELASESEHIPKPQS [MIA2], for which the protein stability index was 5.42 ± 0.26 (treatment: DMSO) and 5.49 ± 0.2 (treatment: MLN4924 1 uM, 8 h).

Take EIVVTISWAKSIPGFSSLSLSDQM [ESRRA]: the protein stability index is 3.19 ± 0.5 (treatment: DMSO) and 2.59 ± 0.22 (treatment: MLN4924 1 uM, 8 h).

On to EKAMAEWVKQQAEREAEKEQKRLE [SDE2], for which the protein stability index came out at 5.5 ± 0.34 (treatment: DMSO) and 5.57 ± 0.18 (treatment: MLN4924 1 uM, 8 h).

Consider EKRGFTSHFVFVIEVKTKGGSKYL [NCF4], for which the protein stability index reads like this: (treatment: DMSO) 3.02 ± 1.1; (treatment: MLN4924 1 uM, 8 h) 3.64 ± 1.1.

With EKVEVQLPELFHKIGVGAMTWSPL [KCNAB2], the protein stability index came to 2.45 ± 0.26 (treatment: DMSO) and 2.51 ± 0.16 (treatment: MLN4924 1 uM, 8 h).

For ELCRDAAQFRLLSEVEELNMSLTA [TEKT4], the protein stability index reads like this: (treatment: DMSO) 2.85 ± 0.34; (treatment: MLN4924 1 uM, 8 h) 2.77 ± 0.28.

Take ELLKEAELIRNIQELLKRTIMQAV [TEKT4]: the protein stability index runs as follows: (treatment: DMSO) 2.4 ± 0.2; (treatment: MLN4924 1 uM, 8 h) 2.27 ± 0.31.

Turning to ELPKPEVISQLEQGTELWVAERGT [ZNF8], the protein stability index runs as follows: (treatment: DMSO) 4.76 ± 0.17; (treatment: MLN4924 1 uM, 8 h) 4.82 ± 0.66.

ELRDISSMAMEYFDEKIVPILKRK [FBXO28] yielded a protein stability index (treatment: DMSO) of 2.78 ± 0.36 and a protein stability index (treatment: MLN4924 1 uM, 8 h) of 3 ± 0.45.

In the case of ELSNFKSQKVLGLNEDPLKWWSDR [ZBED1], the protein stability index reads like this: (treatment: DMSO) 2.73 ± 0.17; (treatment: MLN4924 1 uM, 8 h) 2.97 ± 0.26.

ELVHFLLLKYRAREPVTKAEMLGS [MAGEA3] gave a protein stability index (treatment: DMSO) of 2.54 ± 0.63 and a protein stability index (treatment: MLN4924 1 uM, 8 h) of 2.73 ± 0.92.

As to ELVPHPETAPTTVDRTHALMKKIG [CRYL1], the protein stability index came to 4.31 ± 0.23 (treatment: DMSO) and 4.48 ± 0.35 (treatment: MLN4924 1 uM, 8 h).

On to ENGSVSSSETPPPPPPPNEINPPP [EIF5], for which the protein stability index stood at 5.32 ± 0.18 (treatment: DMSO) and 5.35 ± 0.17 (treatment: MLN4924 1 uM, 8 h).
